The values below come from paper doi:10.1101/2020.12.21.423144 (bioRxiv, 2020).

The series “SEC” deals with the molecule itself. Put plainly: SEC. A general note: In gel filtration, larger molecules generally elute earlier.
Another series addresses P29274. Briefly: SEC.

B1: A2AR-P354ΔC (domain or fragment)
chain: MPIMGSSVYITVELAIAVLAILGNVLVCWAVWLNSNLQNVTNYFVVSLAAADIAVGVLAIPFAITISTGFCAACHGCLFIACFVLVLTQSSIFSLLAIAIDRYIAIRIPLRYNGLVTGTRAKGIIAICWVLSFAIGLTPMLGWNNCGQPKEGKNHSQGCGEGQVACLFEDVVPMNYMVYFNFFACVLVPLLLMLGVYLRIFLAARRQLKQMESQPLPGERARSTLQKEVHAAKSLAIIVGLFALCWLPLHIINCFTFFCPDCSHAPLWLMYLAIVLSHTNSVVNPFIYAYRIREFRQTFRKIIRSHVLRQQEPFKAAGTSARVLAAHGSDGEQVSLRLNGHPPGVWANGSAPHP
As for B1, the “dimer level (relative to monomer)” value in “SEC” was 0.19 arbitrary units.

B2: A2AR-FL-ERR:AAA (receptor)
chain: MPIMGSSVYITVELAIAVLAILGNVLVCWAVWLNSNLQNVTNYFVVSLAAADIAVGVLAIPFAITISTGFCAACHGCLFIACFVLVLTQSSIFSLLAIAIDRYIAIRIPLRYNGLVTGTRAKGIIAICWVLSFAIGLTPMLGWNNCGQPKEGKNHSQGCGEGQVACLFEDVVPMNYMVYFNFFACVLVPLLLMLGVYLRIFLAARRQLKQMESQPLPGERARSTLQKEVHAAKSLAIIVGLFALCWLPLHIINCFTFFCPDCSHAPLWLMYLAIVLSHTNSVVNPFIYAYRIREFRQTFRKIIRSHVLRQQEPFKAAGTSARVLAAHGSDGEQVSLRLNGHPPGVWANGSAPHPAAAPNGYALGLVSGGSAQESQGNTGLPDVELLSHELKGVCPEPPGLDDPLAQDGAGVS
On to B2, for which, in the series with P29274, the “HMW oligomer level (relative to monomer)” value is “ERR:AAA: 0.66”; the “total oligomer level (HMW oligomer and dimer, relative to monomer)” value was “ERR:AAA: 0.94”. Moreover, the “dimer level (relative to monomer)” value in “SEC” was 0.29 arbitrary units.

B3: A2AR-C394A (receptor)
chain: MPIMGSSVYITVELAIAVLAILGNVLVCWAVWLNSNLQNVTNYFVVSLAAADIAVGVLAIPFAITISTGFCAACHGCLFIACFVLVLTQSSIFSLLAIAIDRYIAIRIPLRYNGLVTGTRAKGIIAICWVLSFAIGLTPMLGWNNCGQPKEGKNHSQGCGEGQVACLFEDVVPMNYMVYFNFFACVLVPLLLMLGVYLRIFLAARRQLKQMESQPLPGERARSTLQKEVHAAKSLAIIVGLFALCWLPLHIINCFTFFCPDCSHAPLWLMYLAIVLSHTNSVVNPFIYAYRIREFRQTFRKIIRSHVLRQQEPFKAAGTSARVLAAHGSDGEQVSLRLNGHPPGVWANGSAPHPERRPNGYALGLVSGGSAQESQGNTGLPDVELLSHELKGVAPEPPGLDDPLAQDGAGVS
As to B3, the binding result in the series “SEC” is reported as “binds”.

B4: A2AR-C394S (receptor)
chain: MPIMGSSVYITVELAIAVLAILGNVLVCWAVWLNSNLQNVTNYFVVSLAAADIAVGVLAIPFAITISTGFCAACHGCLFIACFVLVLTQSSIFSLLAIAIDRYIAIRIPLRYNGLVTGTRAKGIIAICWVLSFAIGLTPMLGWNNCGQPKEGKNHSQGCGEGQVACLFEDVVPMNYMVYFNFFACVLVPLLLMLGVYLRIFLAARRQLKQMESQPLPGERARSTLQKEVHAAKSLAIIVGLFALCWLPLHIINCFTFFCPDCSHAPLWLMYLAIVLSHTNSVVNPFIYAYRIREFRQTFRKIIRSHVLRQQEPFKAAGTSARVLAAHGSDGEQVSLRLNGHPPGVWANGSAPHPERRPNGYALGLVSGGSAQESQGNTGLPDVELLSHELKGVSPEPPGLDDPLAQDGAGVS
As to B4, the binding result in “SEC” is given as “binds”.

B5: A2AR-C394L (receptor)
chain: MPIMGSSVYITVELAIAVLAILGNVLVCWAVWLNSNLQNVTNYFVVSLAAADIAVGVLAIPFAITISTGFCAACHGCLFIACFVLVLTQSSIFSLLAIAIDRYIAIRIPLRYNGLVTGTRAKGIIAICWVLSFAIGLTPMLGWNNCGQPKEGKNHSQGCGEGQVACLFEDVVPMNYMVYFNFFACVLVPLLLMLGVYLRIFLAARRQLKQMESQPLPGERARSTLQKEVHAAKSLAIIVGLFALCWLPLHIINCFTFFCPDCSHAPLWLMYLAIVLSHTNSVVNPFIYAYRIREFRQTFRKIIRSHVLRQQEPFKAAGTSARVLAAHGSDGEQVSLRLNGHPPGVWANGSAPHPERRPNGYALGLVSGGSAQESQGNTGLPDVELLSHELKGVLPEPPGLDDPLAQDGAGVS
As to B5, the binding result in “SEC” is on record as “binds”.

B6: A2AR-C394V (receptor)
chain: MPIMGSSVYITVELAIAVLAILGNVLVCWAVWLNSNLQNVTNYFVVSLAAADIAVGVLAIPFAITISTGFCAACHGCLFIACFVLVLTQSSIFSLLAIAIDRYIAIRIPLRYNGLVTGTRAKGIIAICWVLSFAIGLTPMLGWNNCGQPKEGKNHSQGCGEGQVACLFEDVVPMNYMVYFNFFACVLVPLLLMLGVYLRIFLAARRQLKQMESQPLPGERARSTLQKEVHAAKSLAIIVGLFALCWLPLHIINCFTFFCPDCSHAPLWLMYLAIVLSHTNSVVNPFIYAYRIREFRQTFRKIIRSHVLRQQEPFKAAGTSARVLAAHGSDGEQVSLRLNGHPPGVWANGSAPHPERRPNGYALGLVSGGSAQESQGNTGLPDVELLSHELKGVVPEPPGLDDPLAQDGAGVS
In the case of B6, the binding result in “SEC” is “binds”.

B7: A2AR-C394M (receptor)
chain: MPIMGSSVYITVELAIAVLAILGNVLVCWAVWLNSNLQNVTNYFVVSLAAADIAVGVLAIPFAITISTGFCAACHGCLFIACFVLVLTQSSIFSLLAIAIDRYIAIRIPLRYNGLVTGTRAKGIIAICWVLSFAIGLTPMLGWNNCGQPKEGKNHSQGCGEGQVACLFEDVVPMNYMVYFNFFACVLVPLLLMLGVYLRIFLAARRQLKQMESQPLPGERARSTLQKEVHAAKSLAIIVGLFALCWLPLHIINCFTFFCPDCSHAPLWLMYLAIVLSHTNSVVNPFIYAYRIREFRQTFRKIIRSHVLRQQEPFKAAGTSARVLAAHGSDGEQVSLRLNGHPPGVWANGSAPHPERRPNGYALGLVSGGSAQESQGNTGLPDVELLSHELKGVMPEPPGLDDPLAQDGAGVS
Consider B7, for which, in the series “SEC”, the binding result is recorded as “binds”.

B8: A2AR-P395ΔC (domain or fragment)
chain: MPIMGSSVYITVELAIAVLAILGNVLVCWAVWLNSNLQNVTNYFVVSLAAADIAVGVLAIPFAITISTGFCAACHGCLFIACFVLVLTQSSIFSLLAIAIDRYIAIRIPLRYNGLVTGTRAKGIIAICWVLSFAIGLTPMLGWNNCGQPKEGKNHSQGCGEGQVACLFEDVVPMNYMVYFNFFACVLVPLLLMLGVYLRIFLAARRQLKQMESQPLPGERARSTLQKEVHAAKSLAIIVGLFALCWLPLHIINCFTFFCPDCSHAPLWLMYLAIVLSHTNSVVNPFIYAYRIREFRQTFRKIIRSHVLRQQEPFKAAGTSARVLAAHGSDGEQVSLRLNGHPPGVWANGSAPHPERRPNGYALGLVSGGSAQESQGNTGLPDVELLSHELKGVCP
In the case of B8, in the series “SEC”, the binding result is on record as “binds”.

B9: A2AR-V334ΔC (domain or fragment)
chain: MPIMGSSVYITVELAIAVLAILGNVLVCWAVWLNSNLQNVTNYFVVSLAAADIAVGVLAIPFAITISTGFCAACHGCLFIACFVLVLTQSSIFSLLAIAIDRYIAIRIPLRYNGLVTGTRAKGIIAICWVLSFAIGLTPMLGWNNCGQPKEGKNHSQGCGEGQVACLFEDVVPMNYMVYFNFFACVLVPLLLMLGVYLRIFLAARRQLKQMESQPLPGERARSTLQKEVHAAKSLAIIVGLFALCWLPLHIINCFTFFCPDCSHAPLWLMYLAIVLSHTNSVVNPFIYAYRIREFRQTFRKIIRSHVLRQQEPFKAAGTSARVLAAHGSDGEQV
Regarding B9, the binding result in “SEC” was “binds”.

B10: A2AR-G349ΔC (domain or fragment)
chain: MPIMGSSVYITVELAIAVLAILGNVLVCWAVWLNSNLQNVTNYFVVSLAAADIAVGVLAIPFAITISTGFCAACHGCLFIACFVLVLTQSSIFSLLAIAIDRYIAIRIPLRYNGLVTGTRAKGIIAICWVLSFAIGLTPMLGWNNCGQPKEGKNHSQGCGEGQVACLFEDVVPMNYMVYFNFFACVLVPLLLMLGVYLRIFLAARRQLKQMESQPLPGERARSTLQKEVHAAKSLAIIVGLFALCWLPLHIINCFTFFCPDCSHAPLWLMYLAIVLSHTNSVVNPFIYAYRIREFRQTFRKIIRSHVLRQQEPFKAAGTSARVLAAHGSDGEQVSLRLNGHPPGVWANG
On to B10, for which the binding result in “SEC” is listed as “binds”.

B11: A2AR-Q372ΔC (domain or fragment)
chain: MPIMGSSVYITVELAIAVLAILGNVLVCWAVWLNSNLQNVTNYFVVSLAAADIAVGVLAIPFAITISTGFCAACHGCLFIACFVLVLTQSSIFSLLAIAIDRYIAIRIPLRYNGLVTGTRAKGIIAICWVLSFAIGLTPMLGWNNCGQPKEGKNHSQGCGEGQVACLFEDVVPMNYMVYFNFFACVLVPLLLMLGVYLRIFLAARRQLKQMESQPLPGERARSTLQKEVHAAKSLAIIVGLFALCWLPLHIINCFTFFCPDCSHAPLWLMYLAIVLSHTNSVVNPFIYAYRIREFRQTFRKIIRSHVLRQQEPFKAAGTSARVLAAHGSDGEQVSLRLNGHPPGVWANGSAPHPERRPNGYALGLVSGGSAQ
On to B11, for which the binding result in “SEC” was “binds”.

B12: A2AR-N359ΔC (protein)
chain: MPIMGSSVYITVELAIAVLAILGNVLVCWAVWLNSNLQNVTNYFVVSLAAADIAVGVLAIPFAITISTGFCAACHGCLFIACFVLVLTQSSIFSLLAIAIDRYIAIRIPLRYNGLVTGTRAKGIIAICWVLSFAIGLTPMLGWNNCGQPKEGKNHSQGCGEGQVACLFEDVVPMNYMVYFNFFACVLVPLLLMLGVYLRIFLAARRQLKQMESQPLPGERARSTLQKEVHAAKSLAIIVGLFALCWLPLHIINCFTFFCPDCSHAPLWLMYLAIVLSHTNSVVNPFIYAYRIREFRQTFRKIIRSHVLRQQEPFKAAGTSARVLAAHGSDGEQVSLRLNGHPPGVWANGSAPHPERRPN
Turning to B12, in the series with P29274, the “HMW oligomer level (relative to monomer)” value is given as “ctrl: 0.68”; the “total oligomer level (HMW oligomer and dimer, relative to monomer)” value is “ctrl: 1.01”.

B13: A2AR-G344ΔC (domain or fragment)
chain: MPIMGSSVYITVELAIAVLAILGNVLVCWAVWLNSNLQNVTNYFVVSLAAADIAVGVLAIPFAITISTGFCAACHGCLFIACFVLVLTQSSIFSLLAIAIDRYIAIRIPLRYNGLVTGTRAKGIIAICWVLSFAIGLTPMLGWNNCGQPKEGKNHSQGCGEGQVACLFEDVVPMNYMVYFNFFACVLVPLLLMLGVYLRIFLAARRQLKQMESQPLPGERARSTLQKEVHAAKSLAIIVGLFALCWLPLHIINCFTFFCPDCSHAPLWLMYLAIVLSHTNSVVNPFIYAYRIREFRQTFRKIIRSHVLRQQEPFKAAGTSARVLAAHGSDGEQVSLRLNGHPPG
Take B13: in the series “SEC”, the binding result is recorded as “binds”.
